Article doi:10.1101/2024.01.16.575844

Biological target: C3b (human) (UniProt P01024)
Assay: radioligand binding

Chain of UniProt P01024 (P01024 whole entry, looked up): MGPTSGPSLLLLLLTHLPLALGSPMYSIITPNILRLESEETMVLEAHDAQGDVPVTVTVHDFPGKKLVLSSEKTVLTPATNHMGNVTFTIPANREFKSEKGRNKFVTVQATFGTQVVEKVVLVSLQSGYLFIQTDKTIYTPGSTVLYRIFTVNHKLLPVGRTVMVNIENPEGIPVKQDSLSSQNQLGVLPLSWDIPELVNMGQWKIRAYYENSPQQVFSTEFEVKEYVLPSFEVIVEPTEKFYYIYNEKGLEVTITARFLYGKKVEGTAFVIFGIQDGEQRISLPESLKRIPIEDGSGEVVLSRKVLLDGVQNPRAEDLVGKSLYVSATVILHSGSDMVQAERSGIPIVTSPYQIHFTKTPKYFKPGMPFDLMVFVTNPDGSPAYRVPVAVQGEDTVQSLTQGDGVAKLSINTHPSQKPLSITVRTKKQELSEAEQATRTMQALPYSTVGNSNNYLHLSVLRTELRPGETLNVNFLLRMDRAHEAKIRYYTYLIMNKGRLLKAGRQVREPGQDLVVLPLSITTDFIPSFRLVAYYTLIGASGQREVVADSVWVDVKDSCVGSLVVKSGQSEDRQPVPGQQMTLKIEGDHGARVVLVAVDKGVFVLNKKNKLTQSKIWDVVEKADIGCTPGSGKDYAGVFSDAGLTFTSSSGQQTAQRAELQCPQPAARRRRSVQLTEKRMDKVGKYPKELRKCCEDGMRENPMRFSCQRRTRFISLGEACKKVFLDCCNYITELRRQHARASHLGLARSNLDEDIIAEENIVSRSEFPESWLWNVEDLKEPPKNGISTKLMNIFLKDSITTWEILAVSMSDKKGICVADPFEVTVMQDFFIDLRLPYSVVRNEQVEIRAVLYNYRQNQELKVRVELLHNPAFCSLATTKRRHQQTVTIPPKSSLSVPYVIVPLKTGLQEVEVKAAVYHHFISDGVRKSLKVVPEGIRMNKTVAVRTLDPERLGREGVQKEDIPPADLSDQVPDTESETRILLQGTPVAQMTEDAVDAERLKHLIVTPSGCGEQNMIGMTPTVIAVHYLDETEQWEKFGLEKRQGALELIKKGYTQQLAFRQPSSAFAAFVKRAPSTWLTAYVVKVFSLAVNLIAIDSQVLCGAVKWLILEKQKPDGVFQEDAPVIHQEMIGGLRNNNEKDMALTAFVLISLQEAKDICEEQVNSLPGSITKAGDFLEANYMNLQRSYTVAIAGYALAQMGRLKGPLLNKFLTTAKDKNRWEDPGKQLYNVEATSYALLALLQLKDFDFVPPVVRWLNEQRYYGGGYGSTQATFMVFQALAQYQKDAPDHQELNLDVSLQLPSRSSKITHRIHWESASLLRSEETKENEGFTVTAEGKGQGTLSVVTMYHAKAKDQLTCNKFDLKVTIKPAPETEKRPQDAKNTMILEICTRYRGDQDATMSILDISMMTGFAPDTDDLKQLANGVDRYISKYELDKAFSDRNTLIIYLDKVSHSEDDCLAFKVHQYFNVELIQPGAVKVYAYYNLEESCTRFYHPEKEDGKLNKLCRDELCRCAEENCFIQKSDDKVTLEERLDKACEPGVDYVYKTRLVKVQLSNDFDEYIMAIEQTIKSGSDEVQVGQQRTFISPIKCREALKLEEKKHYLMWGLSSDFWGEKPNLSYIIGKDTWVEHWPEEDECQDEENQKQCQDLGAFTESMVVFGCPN

Q: For complement factor B (natural protein), which binding in 5 mM EDTA as percent of that in 0.2 mM Mg2+ is on record?
A: 60 to 70%

Q: And the percent by which binding in 5 mM Mg2+ exceeds that in 0.02 mM Mg2+?
A: 50%

Q: What about the percent inhibition of 125I-labelled factor B binding to C3b-thiol Sepharose of the same substance?
A: 100%
